Experimental data reported in article PMC4661090 (FEBS letters, 2015).
Residue numbers refer to the chain shown, from its start. Names and notes keep the numbering of the source.

B1: thiostrepton resistance methyltransferase Tsr (wild type) (enzyme)
chain: MTELDTIANPSDPAVQRIIDVTKPSRSNIKTTLIEDVEPLMHSIAAGVEFIEVYGSDSSPFPSELLDLCGRQNIPVRLIDSSIVNQLFKGERKAKTFGIARVPRPARFGDIASRRGDVVVLDGVKIVGNIGAIVRTSLALGASGIILVDSDITSIADRRLQRASRGYVFSLPVVLSGREEAIAFIRDSGMQLMTLKADGDISVKELGDNPDRLALLFGSEKGGPSDLFEEASSASVSIPMMSQTESLNVSVSLGIALHERIDRNLAANR
B2: Tsr N129A mutant (enzyme, S. cyaneus, UniProt P18644 1-269, looked up)
chain: B1 chain with N129A

Biological target: the molecule itself
Test: SEC

Row | Protein | stoichiometry N
1 | B1 | 2
2 | B2 | 2
